# Experimental data from the supplement of paper PMC11316812.
# ± gives the standard deviation of the averaged measurements.
# Assays:
# MCF7 = experiment: percentage of EdU-negative (G0-arrested) nuclei per well, 72 h; higher = more G0 arrest; conditions: reference: sequence is the full UniProt precursor, the tested protein was the secreted form or ectodomain
# hTERT-HMEC = experiment: as above; conditions: reference: sequence is the full UniProt precursor, the tested protein was the secreted form or ectodomain
# [1] = protein concentration 0.0225 µM
# [2] = protein concentration 0.0301575 µM
# [3] = protein concentration 0.301575 µM
# [4] = protein concentration 0.0182675 µM
# [5] = protein concentration 0.182675 µM
# [6] = protein concentration 0.01051 µM
# [7] = protein concentration 0.1051 µM
# [8] = protein concentration 0.0325714 µM
# [9] = protein concentration 0.325714 µM
# 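Further: secreted proteins added to cultured cells, EdU pulse at the end, nuclei found by Hoechst imaging, EdU status from nuclear versus surrounding ring intensity ratio, PBS as neutral control.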
sequence,measurement,setting,value
MLHLLALFLHCLPLASGDYDICKSWVTTDEGPTWEFYACQPKVMRLKDYVKVKVEPSGITCGDPPERFCSHENPYLCSNECDASNPDLAHPPRLMFDKEEEGLATYWQSITWSRYPSPLEANITLSWNKTVELTDDVVMTFEYGRPTVMVLEKSLDNGRTWQPYQFYAEDCMEAFGMSARRARDMSSSSAHRVLCTEEYSRWAGSKKEKHVRFEVRDRFAIFAGPDLRNMDNLYTRLESAKGLKEFFTLTDLRMRLLRPALGGTYVQRENLYKYFYAISNIEVIGRCKCNLHANLCSMREGSLQCECEHNTTGPDCGKCKKNFRTRSWRAGSYLPLPHGSPNACATAGSFGNCECYGHSNRCSYIDFLNVVTCVSCKHNTRGQHCQHCRLGYYRNGSAELDDENVCIECNCNQIGSVHDRCNETGFCECREGAAGPKCDDCLPTHYWRQGCYPNVCDDDQLLCQNGGTCLQNQRCACPRGYTGVRCEQPRCDPADDDGGLDCDRAPGAAPRPATLLGCLLLLGLAARLGR [Q96CW9],percentage of EdU-negative,MCF7; [1],28.5 ± 0.47%
same,percentage of EdU-negative,MCF7; protein concentration 0.225 µM,28.61 ± 0.091%
same,percentage of EdU-negative,hTERT-HMEC; [1],5.1 ± 0.37%
same,percentage of EdU-negative,hTERT-HMEC; protein concentration 0.225 µM,5.79 ± 0.16%
MLIFWTITLFLLGAAKGKEVCYEDLGCFSDTEPWGGTAIRPLKILPWSPEKIGTRFLLYTNENPNNFQILLLSDPSTIEASNFQMDRKTRFIIHGFIDKGDESWVTDMCKKLFEVEEVNCICVDWKKGSQATYTQAANNVRVVGAQVAQMLDILLTEYSYPPSKVHLIGHSLGAHVAGEAGSKTPGLSRITGLDPVEASFESTPEEVRLDPSDADFVDVIHTDAAPLIPFLGFGTNQQMGHLDFFPNGGESMPGCKKNALSQIVDLDGIWAGTRDFVACNHLRSYKYYLESILNPDGFAAYPCTSYKSFESDKCFPCPDQGCPQMGHYADKFAGRTSEEQQKFFLNTGEASNFARWRYGVSITLSGRTATGQIKVALFGNKGNTHQYSIFRGILKPGSTHSYEFDAKLDVGTIEKVKFLWNNNVINPTLPKVGATKITVQKGEEKTVYNFCSEDTVREDTLLTLTPC,percentage of EdU-negative,MCF7; [2],25.8 ± 0.77%
same,percentage of EdU-negative,MCF7; [3],26.6 ± 1.5%
same,percentage of EdU-negative,hTERT-HMEC; [2],5.42 ± 0.23%
same,percentage of EdU-negative,hTERT-HMEC; [3],5.14 ± 0.29%
MLKALFLTMLTLALVKSQDTEETITYTQCTDGYEWDPVRQQCKDIDECDIVPDACKGGMKCVNHYGGYLCLPKTAQIIVNNEQPQQETQPAEGTSGATTGVVAASSMATSGVLPGGGFVASAAAVAGPEMQTGRNNFVIRRNPADPQRIPSNPSHRIQCAAGYEQSEHNVCQDIDECTAGTHNCRADQVCINLRGSFACQCPPGYQKRGEQCVDIDECTIPPYCHQRCVNTPGSFYCQCSPGFQLAANNYTCVDINECDASNQCAQQCYNILGSFICQCNQGYELSSDRLNCEDIDECRTSSYLCQYQCVNEPGKFSCMCPQGYQVVRSRTCQDINECETTNECREDEMCWNYHGGFRCYPRNPCQDPYILTPENRCVCPVSNAMCRELPQSIVYKYMSIRSDRSVPSDIFQIQATTIYANTINTFRIKSGNENGEFYLRQTSPVSAMLVLVKSLSGPREHIVDLEMLTVSSIGTFRTSSVLRLTIIVGPFSF,percentage of EdU-negative,MCF7; [4],28 ± 2.2%
same,percentage of EdU-negative,MCF7; [5],29.1 ± 1.9%
same,percentage of EdU-negative,hTERT-HMEC; [4],4.75 ± 0.46%
same,percentage of EdU-negative,hTERT-HMEC; [5],15.7 ± 1.1%
MLKKPLSAVTWLCIFIVAFVSHPAWLQKLSKHKTPAQPQLKAANCCEEVKELKAQVANLSSLLSELNKKQERDWVSVVMQVMELESNSKRMESRLTDAESKYSEMNNQIDIMQLQAAQTVTQTSADAIYDCSSLYQKNYRISGVYKLPPDDFLGSPELEVFCDMETSGGGWTIIQRRKSGLVSFYRDWKQYKQGFGSIRGDFWLGNEHIHRLSRQPTRLRVEMEDWEGNLRYAEYSHFVLGNELNSYRLFLGNYTGNVGNDALQYHNNTAFSTKDKDNDNCLDKCAQLRKGGYWYNCCTDSNLNGVYYRLGEHNKHLDGITWYGWHGSTYSLKRVEMKIRPEDFKP,percentage of EdU-negative,MCF7; [6],24.6 ± 2.7%
same,percentage of EdU-negative,MCF7; [7],25.2 ± 0.9%
same,percentage of EdU-negative,hTERT-HMEC; [6],4.85 ± 0.3%
same,percentage of EdU-negative,hTERT-HMEC; [7],5.52 ± 0.31%
MLKPSLPFTSLLFLQLPLLGVGLNTTILTPNGNEDTTADFFLTTMPTDSLSVSTLPLPEVQCFVFNVEYMNCTWNSSSEPQPTNLTLHYWYKNSDNDKVQKCSHYLFSEEITSGCQLQKKEIHLYQTFVVQLQDPREPRRQATQMLKLQNLVIPWAPENLTLHKLSESQLELNWNNRFLNHCLEHLVQYRTDWDHSWTEQSVDYRHKFSLPSVDGQKRYTFRVRSRFNPLCGSAQHWSEWSHPIHWGSNTSKENPFLFALEAVVISVGSMGLIISLLCVYFWLERTMPRIPTLKNLEDLVTEYHGNFSAWSGVSKGLAESLQPDYSERLCLVSEIPPKGGALGEGPGASPCNQHSPYWAPPCYTLKPET,percentage of EdU-negative,MCF7; [8],24.7 ± 0.8%
same,percentage of EdU-negative,MCF7; [9],26.37 ± 0.19%
same,percentage of EdU-negative,hTERT-HMEC; [8],5.08 ± 0.64%
same,percentage of EdU-negative,hTERT-HMEC; [9],5.6 ± 1.3%
MLLAWVQAFLVSNMLLAEAYGSGGCFWDNGHLYREDQTSPAPGLRCLNWLDAQSGLASAPVSGAGNHSYCRNPDEDPRGPWCYVSGEAGVPEKRPCEDLRCPETTSQALPAFTTEIQEASEGPGADEVQVFAPANALPARSEAAAVQPVIGISQRVRMNSKEKKDLGTLGYVLGITMMVIIIAIGAGIILGYSYKRGKDLKEQHDQKVCEREMQRITLPLSAFTNPTCEIVDEKTVVVHTSQTPVDPQEGTTPLMGQAGTPGA [Q96FE7],percentage of EdU-negative,MCF7; [1],24.9 ± 2%
same,percentage of EdU-negative,MCF7; protein concentration 0.225 µM,25.1 ± 0.47%
same,percentage of EdU-negative,hTERT-HMEC; [1],4.79 ± 0.62%
same,percentage of EdU-negative,hTERT-HMEC; protein concentration 0.225 µM,5.22 ± 0.39%
